Substrate in the data set: Nc1ncnc2c1ncn2[C@@H]1O[C@H](CO)[C@@H](O)[C@H]1O
As to the kind of experiment: Adenosine kinase inhibition (filter binding assay). The data set is classed as biochemical, human. As to conditions: other: adenosine as substrate; 37.0 °C.

B1: WI-L2 adenosine kinase (Homo sapiens) (protein)
chain: MAAAEEEPKPKKLKVEAPQALRENILFGMGNPLLDISAVVDKDFLDKYSLKPNDQILAEDKHKELFDELVKKFKVEYHAGGSTQNSIKVAQWMIQQPHKAATFFGCIGIDKFGEILKRKAAEAHVDAHYYEQNEQPTGTCAACITGDNRSLIANLAAANCYKKEKHLDLEKNWMLVEKARVCYIAGFFLTVSPESVLKVAHHASENNRIFTLNLSAPFISQFYKESLMKVMPYVDILFGNETEAATFAREQGFETKDIKEIAKKTQALPKMNSKRQRIVIFTQGRDDTIMATESEVTAFAVLDQDQKEIIDTNGAGDAFVGGFLSQLVSDKPLTECIRAGHYAASIIIRRTGCTFPEKPDFH
notes: added to the cell-free WI-L2 lysate to give 5 μM final assay concentration; endogenous in cells; host or cells: WI-L2 B lymphoblast cells (cell-free lysate)
Turning to B1, the Michaelis-Menten constant (Km) was determined as 0.9 µM.

A word on the Km: it is the concentration of substrate that gives half-maximal velocity.

Source of the values: US5041542A, “Substituted pyrimido[5,4-d]pyrimidine nucleosides” (Nucleic Acid Research Institute, priority 1988, dated 1991).
